Data: PMC7163869

B1: Cattle Δmoo Mxra8 ectodomain (domain or fragment)
chain: VLLSSGPSGPATSDRSVVSESTVSWAAGARAVLRCQSPRMVWTQDRLHDRQRVVHWDLSGSKAGGPARRLVDMYSTGEQRVYEPRDRGRLLLPPSAFHDGNFSLFIRAVEETDEGLYTCNLHHHYCHLYESLAVSLEVTDDPRAAGAHWDGEKEVLAVERGAPALLTCVNRAHVWTDRHLEEAQQVVHWDRQPPGVPHDRADRLLDLYASGERRAYGPPFLRDRVAVEADAFARGDFSLLIDPVEPADEGTYSCHLHHHYCGLHERRVFHLRVTEPAARPPPPPRDSPGNGSSHSGAPGPGARDPTLTRGRSVINVIVPEGRAHFFQQ

Target: Chikungunya virus-like particles (strain 37997) (chikungunya virus (strain 37997))
Test: BLI

Row | Molecule | Kd [nM]
1 | Mouse Mxra8 ectodomain 23-296 (from UniProt Q9DBV4 23-296) (domain or fragment) | 66.4
2 | B1 | 72.3
